Source: patent publication US20170037110A1 (IMMATICS BIOTECHNOLOGIES, published 2017)

Key:
[1] = target: T1, HLA-A*02:01 (human); assay: pMHC complex coated on artificial APCs and used as fluorescent multimer A*02/SeqID No 662
T1 construct: Construct limits and biotin tag are not described

[2] = target: T2, HLA-A*02:01 (human); assay: UV peptide exchange ELISA
T2 construct: monomers captured on streptavidin plates; also called MHC class I
Method in brief: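 Read-out is an ELISA on the UV-exchange reaction: monomers, diluted 100-fold, are captured on streptavidin and the β2m light chain is detected with 2 μg/ml HRP antibody and TMB at 450 nm.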

[3] = target: T1, HLA-A*02:01; assay: pMHC used for negative control stimulations, biotin-pMHC on streptavidin beads
[4] = target: T1, HLA-A*02:01; assay: pMHC complex coated on artificial APCs and used as fluorescent multimer A*02/SeqID No 663

## KIQEILTQV (also called IGF2BP3 peptide) [SeqID No 662 peptide (KIQEILTQV)]
[1]
  binding result: binds

## GLLDYPVGV
[2]
  peptide exchange yield: 50 to 75%

## TLAELQPPVQL
[2]
  peptide exchange yield: 50 to 75%

## SLFSSLEPQIQPV
[2]
  peptide exchange yield: 50 to 75%

## ILVEADGAWVV
[2]
  peptide exchange yield: ≥ 75%

## VTFGEKLLGV
[2]
  peptide exchange yield: 20 to 50%

## VLLDVSAGQLLM
[2]
  peptide exchange yield: ≥ 75%

## SLMELPRGLFL
[2]
  peptide exchange yield: ≥ 75%

## ILAPTVMMI
[2]
  peptide exchange yield: 50 to 75%

## TLLQIIETV
[2]
  peptide exchange yield: 50 to 75%

## IMQDFPAEIFL
[2]
  peptide exchange yield: ≥ 75%

## KLYEGIPVLL
[2]
  peptide exchange yield: ≥ 75%

## KMSELRVTL
[2]
  peptide exchange yield: 50 to 75%

## TLLAEALVTV
[2]
  peptide exchange yield: 50 to 75%

## YAAPGGLIGV
[2]
  peptide exchange yield: 20 to 50%

## SLFIGEKAVLL
[2]
  peptide exchange yield: 50 to 75%

## FLLVGDLMAV
[2]
  peptide exchange yield: 50 to 75%

## SLLDLETLSL
[2]
  peptide exchange yield: ≥ 75%

## GLLEVMVNL
[2]
  peptide exchange yield: 50 to 75%

## YILPTETIYV
[2]
  peptide exchange yield: ≥ 75%

## YLLPSGGSVTL
[2]
  peptide exchange yield: 20 to 50%

## FQLDPSSGVLVTV
[2]
  peptide exchange yield: 50 to 75%

## IMEDIILTL
[2]
  peptide exchange yield: 50 to 75%

## NLIGKIENV
[2]
  peptide exchange yield: 50 to 75%

## FLQGYQLHL
[2]
  peptide exchange yield: ≥ 75%

B1: DDX5-001 (YLLPAIVHI from DDX5) (peptide)
peptide: YLLPAIVHI
notes: Peptide of the negative control pMHC for the T-cell stimulations; also called 665
[3]
  binding result: binds

## FLYDNLVESL
[2]
  peptide exchange yield: 20 to 50%

## FLDENIGGVAV
[2]
  peptide exchange yield: 50 to 75%

## SLLELDGINL
[2]
  peptide exchange yield: 50 to 75%

## YLIPFTGIVGL
[2]
  peptide exchange yield: 20 to 50%

## ALLDPEVLSIFV
[2]
  peptide exchange yield: 50 to 75%

## NIFDLQIYV
[2]
  peptide exchange yield: 50 to 75%

## FLFSQLQYL
[2]
  peptide exchange yield: 20 to 50%

## ILIDSIYKV
[2]
  peptide exchange yield: 50 to 75%

## GILARIASV
[2]
  peptide exchange yield: 50 to 75%

## FLSSVTYNL
[2]
  peptide exchange yield: 50 to 75%

## KIQEMQHFL (also called MMP12 peptide) [SeqID No 663 peptide (KIQEMQHFL)]
[4]
  binding result: binds

## ALPEAPAPLLPHIT
[2]
  peptide exchange yield: 20 to 50%
